6 molecules from article doi:10.1101/2022.10.05.511023 (bioRxiv, 2022) can be followed below.

Series [1] addresses T1, non-farnesylated GBP1 (guanylate binding protein 1) (human), P32455.
T1 chain: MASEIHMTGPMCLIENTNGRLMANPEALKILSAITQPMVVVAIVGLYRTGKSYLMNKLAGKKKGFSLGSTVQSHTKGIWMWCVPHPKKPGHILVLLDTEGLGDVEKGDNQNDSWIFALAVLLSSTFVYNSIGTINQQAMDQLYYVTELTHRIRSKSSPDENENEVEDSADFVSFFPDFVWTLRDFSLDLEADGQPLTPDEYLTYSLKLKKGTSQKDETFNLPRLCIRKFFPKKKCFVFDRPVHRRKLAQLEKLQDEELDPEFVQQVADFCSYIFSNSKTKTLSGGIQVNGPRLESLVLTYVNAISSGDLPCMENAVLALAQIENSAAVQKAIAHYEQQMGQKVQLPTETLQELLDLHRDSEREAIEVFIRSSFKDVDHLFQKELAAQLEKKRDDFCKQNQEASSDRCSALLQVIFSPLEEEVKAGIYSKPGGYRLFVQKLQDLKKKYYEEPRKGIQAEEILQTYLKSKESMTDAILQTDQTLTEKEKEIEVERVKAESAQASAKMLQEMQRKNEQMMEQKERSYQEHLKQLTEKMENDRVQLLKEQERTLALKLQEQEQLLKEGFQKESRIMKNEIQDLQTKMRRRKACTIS
Briefly: dynamic light scattering. Conditions: remark: other sources report otherwise.

The series “dynamic light scattering” deals with the molecule itself. The experiment in a line: dynamic light scattering.
In series [2] the target is T2, farnesylated GBP1 (guanylate binding protein 1) (human, UniProt P32455 1-592, farnesylated in vitro (C-terminal farnesyl moiety)).
T2 sequence: T1 chain
The experiment in a line: absorbance-based light scattering.

Series [3] addresses T3, non-geranylgeranylated GBP5 (guanylate binding protein 5) (human), Q96PP8.
T3 chain: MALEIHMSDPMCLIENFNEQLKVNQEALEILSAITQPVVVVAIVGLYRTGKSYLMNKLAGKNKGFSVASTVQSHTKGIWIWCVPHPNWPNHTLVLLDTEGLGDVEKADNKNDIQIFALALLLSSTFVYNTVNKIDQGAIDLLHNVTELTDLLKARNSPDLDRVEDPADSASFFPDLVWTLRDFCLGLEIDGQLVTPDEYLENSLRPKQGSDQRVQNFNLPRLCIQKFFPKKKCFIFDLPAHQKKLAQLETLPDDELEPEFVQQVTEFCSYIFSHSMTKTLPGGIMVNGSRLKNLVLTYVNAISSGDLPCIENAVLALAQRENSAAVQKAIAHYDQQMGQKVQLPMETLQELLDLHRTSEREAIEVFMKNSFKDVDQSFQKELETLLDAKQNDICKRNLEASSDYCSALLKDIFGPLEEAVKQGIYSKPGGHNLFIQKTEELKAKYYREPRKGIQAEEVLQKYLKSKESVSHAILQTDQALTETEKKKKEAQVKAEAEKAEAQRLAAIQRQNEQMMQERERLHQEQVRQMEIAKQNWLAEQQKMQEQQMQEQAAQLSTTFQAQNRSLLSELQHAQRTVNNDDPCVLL
The experiment in a line: dynamic light scattering. Conditions: remark: other sources report otherwise.

Series [4] concerns the target T4, geranylgeranylated GBP5 (guanylate binding protein 5) (human), Q96PP8.
T4 chain: T3 chain
The experiment in a line: dynamic light scattering. Conditions: remark: other sources report otherwise.

B1: non-farnesylated GBP1 (guanylate binding protein 1), P32455 1-592 (natural protein)
chain: T1 chain
Molecule B1 registered a stoichiometry N in series [1] of 2.

B2: geranylgeranylated GBP2 (guanylate binding protein 2) (natural protein, human, UniProt P32456 1-591, looked up)
chain: MAPEINLPGPMSLIDNTKGQLVVNPEALKILSAITQPVVVVAIVGLYRTGKSYLMNKLAGKKNGFSLGSTVKSHTKGIWMWCVPHPKKPEHTLVLLDTEGLGDIEKGDNENDSWIFALAILLSSTFVYNSMGTINQQAMDQLHYVTELTDRIKANSSPGNNSVDDSADFVSFFPAFVWTLRDFTLELEVDGEPITADDYLELSLKLRKGTDKKSKSFNDPRLCIRKFFPKRKCFVFDWPAPKKYLAHLEQLKEEELNPDFIEQVAEFCSYILSHSNVKTLSGGIPVNGPRLESLVLTYVNAISSGDLPCMENAVLALAQIENSAAVEKAIAHYEQQMGQKVQLPTETLQELLDLHRDSEREAIEVFMKNSFKDVDQMFQRKLGAQLEARRDDFCKQNSKASSDCCMALLQDIFGPLEEDVKQGTFSKPGGYRLFTQKLQELKNKYYQVPRKGIQAKEVLKKYLESKEDVADALLQTDQSLSEKEKAIEVERIKAESAEAAKKMLEEIQKKNEEMMEQKEKSYQEHVKQLTEKMERDRAQLMAEQEKTLALKLQEQERLLKEGFENESKRLQKDIWDIQMRSKSLEPICNIL
modifications: geranylgeranylated in vitro (C-terminal geranylgeranyl moiety)
With B2, the binding result (in “dynamic light scattering”; in series [2]) was “binds” in each case.

B3: non-geranylgeranylated GBP2 (guanylate binding protein 2) (natural protein, human, UniProt P32456 1-591, looked up)
chain: B2 chain
Take B3: the “stoichiometry N” value in “dynamic light scattering” was found to be 2.

B4: non-geranylgeranylated GBP5 (guanylate binding protein 5), Q96PP8 1-586 (natural protein)
chain: T3 chain
On to B4, for which the stoichiometry N in series [3] was determined as 2.

B5: geranylgeranylated GBP5 (guanylate binding protein 5) (natural protein, human, UniProt Q96PP8 1-586, looked up)
chain: T3 chain
modifications: geranylgeranylated in vitro (C-terminal geranylgeranyl moiety)
For the molecule B5, in series [2], the binding result is “binds”.

B6: geranylgeranylated GBP5 (guanylate binding protein 5), Q96PP8 1-586 (natural protein)
chain: T3 chain
modifications: here or on the partner: geranylgeranylated in vitro (C-terminal geranylgeranyl moiety); geranylgeranylated in vitro (C-terminal geranylgeranyl moiety)
The molecule B6 came in with a stoichiometry N in series [4] of 2.

Broadly, the stoichiometry N is the number of molecules, sites or subunits per partner or assembly.
